The results in this text go back to US20240109957A1 (ANNEXON, published 2024).

For orientation: Kd means a measure of binding affinity in units of concentration. Low values mean tighter binding, high ones weaker binding.

Assay [1] deals with T1, human complement C1q (Homo sapiens, UniProt P02745 23-245; P02746 28-253; P02747 29-245). Description: cell-based or functional assay.
The target in assay [2] is T1, human complement C1q. Description: Not stated; affinity given in descriptive text.

T1 sequence (P02745 23-245 limits assumed, chain 1 of 3): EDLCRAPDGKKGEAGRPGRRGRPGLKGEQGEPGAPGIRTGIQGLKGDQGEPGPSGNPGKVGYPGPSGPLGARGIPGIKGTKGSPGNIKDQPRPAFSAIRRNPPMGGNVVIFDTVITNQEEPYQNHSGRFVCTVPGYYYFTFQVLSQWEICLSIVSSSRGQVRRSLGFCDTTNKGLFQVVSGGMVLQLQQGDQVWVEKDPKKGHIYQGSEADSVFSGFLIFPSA
T1 sequence (P02746 28-253 limits assumed, chain 2 of 3): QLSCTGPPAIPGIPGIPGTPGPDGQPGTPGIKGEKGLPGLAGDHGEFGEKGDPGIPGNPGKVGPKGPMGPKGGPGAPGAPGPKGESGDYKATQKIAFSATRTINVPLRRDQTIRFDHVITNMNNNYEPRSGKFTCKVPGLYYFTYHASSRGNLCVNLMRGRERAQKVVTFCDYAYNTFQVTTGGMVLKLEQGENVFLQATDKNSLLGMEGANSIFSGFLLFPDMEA
T1 sequence (P02747 29-245 limits assumed, chain 3 of 3): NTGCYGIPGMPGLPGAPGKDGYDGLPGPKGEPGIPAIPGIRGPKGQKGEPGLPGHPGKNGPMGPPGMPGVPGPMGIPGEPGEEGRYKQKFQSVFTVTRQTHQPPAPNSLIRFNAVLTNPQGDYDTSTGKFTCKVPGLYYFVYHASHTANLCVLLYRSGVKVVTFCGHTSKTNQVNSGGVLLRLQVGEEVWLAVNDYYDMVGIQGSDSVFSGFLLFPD

B1: FabA (anti-C1q antibody Fab fragment) (Fab)
heavy: QVQLVQSGAELKKPGASVKVSCKSSGYHFTSYWMHWVKQAPGQGLEWIGVIHPNSGSINYNEKFESRVTITVDKSTSTAYMELSSLRSEDTAVYYCAGERDSTEVLPMDYWGQGTTVTVSSASTKGPSVFPLAPSSKSTSGGTAALGCLVKDYFPEPVTVSWNSGALTSGVHTFPAVLQSSGLYSLSSVVTVPSSSLGTQTYICNVNHKPSNTKVDKKVEPKSCDKTHT
light: DVQITQSPSSLSASLGERATINCRASKSINKYLAWYQQKPGKAPKLLIYSGSTLQSGIPARFSGSGSGTDFTLTISSLEPEDFAMYYCQQHNEYPLTFGQGTKLEIKRTVAAPSVFIFPPSDEQLKSGTASVVCLLNNFYPREAKVQWKVDNALQSGNSQESVTEQDSKDSTYSLSSTLTLSKADYEKHKVYACEVTHQGLSSPVTKSFNRGEC
notes: Heavy chain Fab fragment truncated after the first constant domain of IgG1; also called anti-C1q Fab; anti-C1q monovalent Fab
On to B1, for which, in the assay with human complement C1q [1], the “IC50 for inhibition of complement deposition (C4 and C3d on human RBCs, flow cytometry)” value was around 10 nM; the “IC50 for inhibition of hemolysis (CAD-sensitised human RBCs, normal human serum, absorbance at 415 nM)” value is around 10 nM. The molecule also gave an equilibrium dissociation constant (Kd) with human complement C1q [2] of 0.01 nM.
